# Data taken from publication PMC3080401, “Oligomerization of the E. coli Core RNA Polymerase: Formation of (α2ββ'ω)2–DNA Complexes and Regulation of the Oligomerization by Auxiliary Subunits”.
# B1: short DNA probe (Fig 2E) (mixed)
# DNA: CGCGCCAACAGCGACATCAAATTTGTCGCC
# Experiments:
# [1] = molecular target: RNA polymerase core enzyme (alpha2 beta beta' omega) (Escherichia coli, UniProt P0A7Z4;P0A8V2;P0A8T7;P0A800 1-329;1-1342;1-1407;1-91); experiment: EMSA; 40-160 nM core; tandem (D) complex; EMSA buffer D (1x): 20 mM Tris-acetate, 10 mM Mg acetate, 50 mM K acetate, 1 mM DTT, pH 7.8; native PAGE in 0.5x TBE running buffer; 37 C for the tac and slyD template reactions, otherwise temperature not stated; conditions: protein: native; chain copies: 2;1;1;1; label: 5'-32P
# [2] = molecular target: RNA polymerase holoenzyme (alpha2 beta beta' omega sigma70) (Escherichia coli, UniProt P0A7Z4;P0A8V2;P0A8T7;P0A800;P00579 1-329;1-1342;1-1407;1-91;1-613); experiment: EMSA; 40-160 nM holoenzyme; single-copy (M) complex; EMSA buffer D (1x): 20 mM Tris-acetate, 10 mM Mg acetate, 50 mM K acetate, 1 mM DTT, pH 7.8; native PAGE in 0.5x TBE running buffer; 37 C for the tac and slyD template reactions, otherwise temperature not stated; conditions: protein: native; chain copies: 2;1;1;1;1; label: 5'-32P
binder,measurement,setting,value
B1,binding result,[1],binds
same,binding result,[2],binds
